The Immune Epitope Database (IEDB)

What was measured:
Assay in all cases: IEDB peptide-MHC binding, purified MHC/competitive/radioactivity; filed as Kd, often an IC50 or EC50 that approximates it; ≥ and ≤ were set here for values at or beyond the usual limits of such assays
HLA-A*31:01 = target: HLA-A*31:01
HLA-A*11:01 = target: HLA-A*11:01
HLA-A*33:01 = target: HLA-A*33:01
HLA-A*68:01 = target: HLA-A*68:01
HLA-A*03:01 = target: HLA-A*03:01
[1] = source organism: Dengue virus 3 Martinique/1243/1999
[2] = source organism: Dengue virus 4 Dominica/814669/1981
[3] = source organism: SARS coronavirus Tor2
[4] = source organism: Vaccinia virus WR
[5] = source organism: Mammarenavirus guanaritoense
[6] = source organism: Dengue virus 2 Jamaica/1409/1983
[7] = source organism: Dengue virus 1 Brazil/97-11/1997
[8] = source organism: Lymphocytic choriomeningitis virus (strain Armstrong)
[9] = source organism: Dengue virus 4 Philippines/H241/1956

## AALAFHLTSR
HLA-A*31:01; [1]
  Kd: 17.5 nM

## AALSEGVYR
HLA-A*31:01; [2]
  Kd: 169 nM

## AAMQRKLEK
HLA-A*11:01; [3]
  Kd: 257 nM
HLA-A*31:01; [3]
  Kd: ≥ 21200 nM
HLA-A*33:01; [3]
  Kd: ≥ 77700 nM
HLA-A*68:01; [3]
  Kd: ≥ 77700 nM
HLA-A*03:01; [3]
  Kd: 7010 nM

## AARILSEKRK
HLA-A*11:01; [4]
  Kd: 3140 nM
HLA-A*31:01; [4]
  Kd: ≥ 63700 nM
HLA-A*33:01; [4]
  Kd: ≥ 70000 nM
HLA-A*68:01; [4]
  Kd: 8050 nM
HLA-A*03:01; [4]
  Kd: 7880 nM

## ACRCGRFQK
HLA-A*11:01; [5]
  Kd: 5130 nM
HLA-A*31:01; [5]
  Kd: 1440 nM
HLA-A*33:01; [5]
  Kd: ≥ 27300 nM
HLA-A*03:01; [5]
  Kd: 3570 nM

## AISGDDCVVK
HLA-A*11:01; [6]
  Kd: 2070 nM

## ALCEKALKY
HLA-A*11:01; [3]
  Kd: 1440 nM
HLA-A*31:01; [3]
  Kd: ≥ 65100 nM
HLA-A*33:01; [3]
  Kd: ≥ 35800 nM
HLA-A*68:01; [3]
  Kd: 13000 nM
HLA-A*03:01; [3]
  Kd: 234 nM

## AMDEFIQRYK
HLA-A*11:01; [3]
  Kd: 59 nM
HLA-A*31:01; [3]
  Kd: 221 nM
HLA-A*33:01; [3]
  Kd: 13300 nM
HLA-A*68:01; [3]
  Kd: 8300 nM
HLA-A*03:01; [3]
  Kd: 39 nM

## AQCFKMFYK
HLA-A*11:01; [3]
  Kd: 2.52 nM
HLA-A*31:01; [3]
  Kd: 6.24 nM
HLA-A*33:01; [3]
  Kd: 878 nM
HLA-A*68:01; [3]
  Kd: 177 nM
HLA-A*03:01; [3]
  Kd: 25.6 nM

## ASKTINALVY
HLA-A*11:01; [4]
  Kd: 1010 nM
HLA-A*31:01; [4]
  Kd: 11100 nM
HLA-A*33:01; [4]
  Kd: ≥ 70000 nM
HLA-A*68:01; [4]
  Kd: ≥ 41800 nM
HLA-A*03:01; [4]
  Kd: 761 nM

## AVFKNSFLGK
HLA-A*11:01; source organism: Variola virus
  Kd: ≥ 69700 nM
HLA-A*31:01; source organism: Variola virus
  Kd: ≥ 70000 nM
HLA-A*33:01; source organism: Variola virus
  Kd: ≥ 70000 nM
HLA-A*68:01; source organism: Variola virus
  Kd: ≥ 70100 nM
HLA-A*03:01; source organism: Variola virus
  Kd: ≥ 70000 nM

## CLEWLRAKRK
HLA-A*11:01; [4]
  Kd: 19500 nM
HLA-A*31:01; [4]
  Kd: 2720 nM
HLA-A*33:01; [4]
  Kd: 11300 nM
HLA-A*68:01; [4]
  Kd: ≥ 57300 nM
HLA-A*03:01; [4]
  Kd: 1000 nM

## CTTTGEHRR
HLA-A*68:01; source organism: Dengue virus 2 Peru/IQT2913/1996
  Kd: 27.6 nM

## DADPPIPYSR
HLA-A*11:01; [4]
  Kd: 16400 nM
HLA-A*31:01; [4]
  Kd: 10100 nM
HLA-A*33:01; [4]
  Kd: 2690 nM
HLA-A*68:01; [4]
  Kd: 509 nM
HLA-A*03:01; [4]
  Kd: ≥ 70100 nM

## DARYCSEFIR
HLA-A*11:01; [4]
  Kd: ≥ 37200 nM
HLA-A*31:01; [4]
  Kd: 1130 nM
HLA-A*33:01; [4]
  Kd: 24.3 nM
HLA-A*68:01; [4]
  Kd: 249 nM
HLA-A*03:01; [4]
  Kd: ≥ 70100 nM

## DICSKHMDAR
HLA-A*11:01; [4]
  Kd: ≥ 69800 nM
HLA-A*31:01; [4]
  Kd: 1480 nM
HLA-A*33:01; [4]
  Kd: 126 nM
HLA-A*68:01; [4]
  Kd: 605 nM
HLA-A*03:01; [4]
  Kd: ≥ 47100 nM

## DLPSGFNTLK
HLA-A*11:01; [3]
  Kd: 1220 nM
HLA-A*31:01; [3]
  Kd: ≥ 36700 nM
HLA-A*33:01; [3]
  Kd: 10400 nM
HLA-A*68:01; [3]
  Kd: 11 nM
HLA-A*03:01; [3]
  Kd: 2300 nM

## DSIKDVIHDY
HLA-A*11:01; [4]
  Kd: 5140 nM
HLA-A*31:01; [4]
  Kd: 15400 nM
HLA-A*33:01; [4]
  Kd: ≥ 70000 nM
HLA-A*68:01; [4]
  Kd: 10200 nM
HLA-A*03:01; [4]
  Kd: ≥ 70100 nM

## DVDIYDAVR
HLA-A*11:01; [4]
  Kd: ≥ 77900 nM
HLA-A*31:01; [4]
  Kd: 14000 nM
HLA-A*33:01; [4]
  Kd: 2280 nM
HLA-A*68:01; [4]
  Kd: 179 nM
HLA-A*03:01; [4]
  Kd: ≥ 53300 nM

## DVQRTRCKY
HLA-A*11:01; [4]
  Kd: ≥ 77900 nM
HLA-A*31:01; [4]
  Kd: ≥ 77900 nM
HLA-A*33:01; [4]
  Kd: ≥ 35300 nM
HLA-A*68:01; [4]
  Kd: 9190 nM
HLA-A*03:01; [4]
  Kd: ≥ 53900 nM

## EFKEFAAGRR
HLA-A*33:01; [7]
  Kd: 37.6 nM

## EIIFLKLFK
HLA-A*11:01; [4]
  Kd: 1.25 nM
HLA-A*31:01; [4]
  Kd: 602 nM
HLA-A*33:01; [4]
  Kd: 99.3 nM
HLA-A*68:01; [4]
  Kd: 0.699 nM
HLA-A*03:01; [4]
  Kd: 16.1 nM

## EKVETWALR
HLA-A*33:01; [1]
  Kd: 74.9 nM
HLA-A*68:01; [1]
  Kd: ≥ 22900 nM

## GYVLGVFLR
HLA-A*31:01; [2]
  Kd: 53.2 nM
HLA-A*33:01; [2]
  Kd: 1820 nM

## HLKCRLKMDK
HLA-A*03:01; [7]
  Kd: 68 nM

## KPKPAVRFAI
HLA-A*31:01; [4]
  Kd: ≥ 70000 nM

## KVLRENTSPK
HLA-A*03:01; source organism: Homo sapiens
  Kd: 28.9 nM

## LLNGQGPMK
HLA-A*03:01; [1]
  Kd: 16.2 nM

## LTKFVSAALH
HLA-A*31:01; [8]
  Kd: 864 nM
HLA-A*33:01; [8]
  Kd: 3760 nM
HLA-A*68:01; [8]
  Kd: 221 nM

## LVMAFIAFLR
HLA-A*11:01; [7]
  Kd: 1380 nM
HLA-A*31:01; [7]
  Kd: 73.5 nM
HLA-A*33:01; [7]
  Kd: 106 nM
HLA-A*68:01; [7]
  Kd: 31.8 nM

## LWRTLGRNKR
HLA-A*31:01; source organism: Dengue virus 3 Sri Lanka/1266/2000
  Kd: 712 nM

## MATYGWNLVK
HLA-A*11:01; [7]
  Kd: 370 nM

## MLNIMNRRK
HLA-A*03:01; [7]
  Kd: 21 nM

## MLVTPSMTMR
HLA-A*31:01; [1]
  Kd: 111 nM
HLA-A*68:01; [1]
  Kd: 54.7 nM

## MYFHRRDLR
HLA-A*31:01; [6]
  Kd: 0.137 nM
HLA-A*33:01; [6]
  Kd: 5.64 nM
HLA-A*68:01; [6]
  Kd: 346 nM

## NTTSKMLLNR
HLA-A*33:01; [9]
  Kd: 100 nM
HLA-A*68:01; [9]
  Kd: 179 nM

## QAAILMGLDK
HLA-A*68:01; [7]
  Kd: 377 nM

## RLKMDKLTLK
HLA-A*03:01; [7]
  Kd: 13 nM

## RQMEGEGIFK
HLA-A*11:01; [6]
  Kd: 127 nM
HLA-A*03:01; [6]
  Kd: 21.5 nM

## RTLAKEGIKR
HLA-A*31:01; [6]
  Kd: 14.3 nM

## SAKLRWFVER
HLA-A*31:01; [6]
  Kd: 26.3 nM
HLA-A*33:01; [6]
  Kd: 46.5 nM

## TANPVVTKK
HLA-A*11:01; [1]
  Kd: 245 nM

## TLGWLLQTPK
HLA-A*03:01; source organism: Homo sapiens
  Kd: 7.5 nM

## TTSKMLLNR
HLA-A*11:01; [9]
  Kd: 178 nM
HLA-A*68:01; [9]
  Kd: 59.8 nM

## TVCYVLTGR
HLA-A*31:01; [6]
  Kd: 10.3 nM
HLA-A*33:01; [6]
  Kd: 1.6 nM
HLA-A*68:01; [6]
  Kd: 15.2 nM

## TYLALMATFK
HLA-A*33:01; [7]
  Kd: 11 nM

## VTAASAAQR
HLA-A*68:01; [1]
  Kd: 43.2 nM

## VTHSSAAQR
HLA-A*31:01; [6]
  Kd: 25.8 nM
HLA-A*68:01; [6]
  Kd: 42 nM

## WYLWEVKKQR
HLA-A*33:01; [6]
  Kd: 39.7 nM

## YTIGTTHFQR
HLA-A*31:01; [6]
  Kd: 44.3 nM
HLA-A*33:01; [6]
  Kd: 6.12 nM
HLA-A*68:01; [6]
  Kd: 17.3 nM

## YYCGGLKNVR
HLA-A*33:01; [6]
  Kd: 3.1 nM
